Data on six molecules can be found in doi:10.1101/2020.10.28.359091 (bioRxiv, 2020).

Like-named read-outs stand apart in the source and are kept apart here. No end group written: not given here. *: point of attachment. FITC = O=C1OC2(c3ccc(O)cc3Oc3cc(O)ccc32)c2ccc(NC(=S)*)cc21

Assay [1] addresses RXR/RAR LBD heterodimer (mouse RXRα LBD with human RARα LBD) (human | mouse) (UniProt P10276). In words: fluorescence polarisation. For orientation: Fluorescence polarisation rises when a labelled molecule tumbles more slowly, as on binding a larger partner.
Assay [2] has the same target. In words: fluorescence polarisation. This is another data set of the same source.
In assay [3] the target is T1, RARα ligand-binding domain (RAR LBD) (human, UniProt P10276-1 176-421).
T1 sequence: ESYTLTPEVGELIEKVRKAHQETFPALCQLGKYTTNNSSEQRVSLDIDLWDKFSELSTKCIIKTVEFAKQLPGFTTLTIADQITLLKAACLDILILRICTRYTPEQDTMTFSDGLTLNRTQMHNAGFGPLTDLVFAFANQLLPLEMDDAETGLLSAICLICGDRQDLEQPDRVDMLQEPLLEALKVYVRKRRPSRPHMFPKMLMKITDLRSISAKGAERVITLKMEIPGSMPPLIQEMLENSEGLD
In words: crystal structure.

Assay [4] has as its target T1, RARα ligand-binding domain (RAR LBD). In words: fluorescence polarisation.
The target is the same in assay [5]. In words: crystal structure. This is another data set of the same source.

Usually Kd stands for a measure of binding affinity in units of concentration. Molecule “TIF2 nuclear receptor interaction domain (TIF2_(NRID)), residues 624-773, wild type (domain or fragment)” registered a dissociation constant (Kd) in assay [1] of 200 nM. In assay [2], this molecule had a Kd of 1340 nM and a fold decrease of Kd against the apo heterodimer of 9 fold.
Turning to KHKILHRLLQDSSSPVDLAKLTAEATGK [TIF2 NR2-Ext peptide (K686-K713), unlabelled], the binding result in assay [3] is recorded as “binds”.
For the molecule {FITC}-LTERHKILHRLLQEGSP [FITC-SRC1 NR2 peptide (FITC-LTERHKILHRLLQEGSP)], the binding result in assay [4] was “binds”.
As to RHKILHRLLQEGSPSDITTLSVEPDKK [SRC1 NR2-Ext peptide (RHKILHRLLQEGSPSDITTLSVEPDKK)], the binding result in assay [5] was “binds”.
Consider RHKILHRLLQEGS [SRC1 NR2 peptide (RHKILHRLLQEGS), unlabelled], for which, in assay [4], the binding result is “binds”.
In the case of KHKILHRLLQDSS [TIF2 NR2 peptide (KHKILHRLLQDSS), unlabelled], the binding result in assay [4] is given as “binds”.
